Results from the supplement of paper PMC10126150.
± gives the standard deviation of the averaged measurements.

Tested on: ATP
Test: switch fluorescence ratio, 500 uM ATP over buffer (Cy3 cluster intensity, sum of 5 cycles each) (fold (ratio)); higher = stronger signal-on switching upon ATP binding; sequences stand for … in TCGTCGGCAGCGTCAGATGTGTATAAGAGACAGTTTTTTTTTTTTTTTTTTTTTTTTT…TC
Settings: aptamer strand: ATP DNA aptamer (quencher-CACCTGGGGGAGTATTGCGGAGGAAGG + anchor), 100 nM annealed; ATP concentration: 500 uM
Procedure, shortened: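 Clusters carrying Cy3-labelled switching strands on a modified Illumina MiSeq flow-cell were annealed to 100 nM quencher-labelled ATP aptamer and imaged in selection buffer. They were imaged again after 15 min with 500 uM ATP at 22 °C, over five buffer/ATP cycles with NaOH stripping and re-annealing in between. For each cluster, the fluorescence ratio is the summed Cy3 intensity of the target cycles divided by that of the buffer cycles, averaged per switch-domain sequence. Clusters outside 100-1000 RFU were left out.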
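Further: ATP exposure 15 min at 22 °C before imaging.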

Sequence	switch fluorescence ratio
GATACGTGGG	0.9702 ± 0.0065
GATACTTTTT	1.01 ± 0.029
GATAGAAGTA	0.9733 ± 0.0057
GATAGACTTT	1.02 ± 0.048
GATAGATGTT	0.979 ± 0.02
GATAGGGCAT	1.02 ± 0.012
GATAGGGGAA	0.978 ± 0.022
GATAGGGGAC	1.03 ± 0.039
GATAGGGGTT	0.975 ± 0.022
GATAGGTG	1.21 ± 0.1
GATAGTAAGT	0.998 ± 0.077
GATAGTGATA	1.01 ± 0.019
GATAGTTTGT	1 ± 0.011
GATATAGGCG	1.05 ± 0.047
GATATAGTGT	0.991 ± 0.02
GATATATATG	1.01 ± 0.015
GATATATGCT	1 ± 0.013
GATATATTAT	1.017 ± 0.0038
GATATATTTT	0.976 ± 0.01
GATATCAGGG	0.978 ± 0.037
GATATCCATG	0.972 ± 0.014
GATATGGGGG	1.01 ± 0.03
GATATTAGAT	1.02 ± 0.046
GATATTATTT	0.998 ± 0.024
GATATTGCGA	1.02 ± 0.035

Sequence	switch fluorescence ratio
GATATTGTTA	1 ± 0.029
GATATTTCGG	1.011 ± 0.0024
GATATTTTAA	0.992 ± 0.037
GATCAGTGGC	1.05 ± 0.071
GATCATGCCT	1.048 ± 0.008
GATCATTTGT	0.9797 ± 0.0018
GATCCACGGT	1.03 ± 0.027
GATCGACTGG	1.029 ± 0.0075
GATCGAGGGG	1.05 ± 0.1
GATCGCAGCG	0.986 ± 0.032
GATCGCGTAT	1.02 ± 0.0026
GATCGGGGAC	1.03 ± 0.027
GATCGGGGGA	1.02 ± 0.015
GATCGGTAAT	1.04 ± 0.028
GATCTCAGGG	1 ± 0.034
GATCTGCTTC	1.02 ± 0.026
GATCTTCGGC	0.9541 ± 0.0027
GATCTTTGTT	1.009 ± 0.0093
GATCTTTTCG	1.01 ± 0.037
GATGAAAAGT	0.976 ± 0.015
GATGAAAGAT	1.003 ± 0.0085
GATGAAGACT	1 ± 0.067
GATGACCTTT	1.07 ± 0.14
GATGACTTTT	1 ± 0.023
GATGAGGTTC	0.967 ± 0.053

Sequence	switch fluorescence ratio
GATGATGAGG	0.9961 ± 0.0073
GATGATGGCG	1.05 ± 0.073
GATGATGTTT	0.973 ± 0.039
GATGATTCTG	1.001 ± 0.0056
GATGCAGGGC	1.12 ± 0.081
GATGCATGTT	0.9947 ± 0.0021
GATGCCGGCA	0.98 ± 0.065
GATGCGCCGG	1.03 ± 0.034
GATGCGGGGA	1.01 ± 0.018
GATGCGTACG	1 ± 0.055
GATGCTATTT	1.004 ± 0.0087
GATGGAACAC	0.994 ± 0.017
GATGGAGGAG	1.03 ± 0.027
GATGGAGGAT	1.01 ± 0.021
GATGGAGGGA	1.01 ± 0.028
GATGGAGGTT	0.996 ± 0.055
GATGGATGAA	1.016 ± 0.0033
GATGGGAGGT	1.008 ± 0.0046
GATGGGATGG	0.993 ± 0.039
GATGGGCCGG	1 ± 0.039
GATGGGGAGT	0.9715 ± 0.0057
GATGGGGGCA	1 ± 0.086
GATGGGGGGT	1 ± 0.022
GATGGGGGTG	1.02 ± 0.053
GATGGGGTTC	1.01 ± 0.018

Sequence	switch fluorescence ratio
GATGGGTATA	1.0016 ± 0.00067
GATGGGTATG	0.995 ± 0.01
GATGGGTG	1.03 ± 0.082
GATGGTTAGA	0.998 ± 0.036
GATGGTTGAA	0.984 ± 0.021
GATGTAAAGC	1.02 ± 0.06
GATGTAAAGG	0.9891 ± 0.006
GATGTAACAA	0.998 ± 0.035
GATGTAATGT	1.0081 ± 0.00064
GATGTACAGA	1.13 ± 0.019
GATGTAGGTA	0.983 ± 0.038
GATGTATTAT	1.008 ± 0.0043
GATGTATTTT	0.9823 ± 0.004
GATGTCCACG	0.9874 ± 0.0051
GATGTCGGTC	0.9825 ± 0.0039
GATGTGAAAG	0.9638 ± 0.003
GATGTGATTA	0.982 ± 0.039
GATGTGCGTC	1.01 ± 0.023
GATGTTAAAC	1.06 ± 0.02
GATGTTCGAG	0.991 ± 0.011
GATGTTGCCG	1.05 ± 0.057
GATGTTGTGT	0.9802 ± 0.0091
GATGTTGTTT	1.03 ± 0.056
GATGTTTACT	1.0047 ± 0.00016
GATGTTTATG	0.975 ± 0.036

Sequence	switch fluorescence ratio
GATGTTTGTG	0.992 ± 0.045
GATGTTTTGG	0.986 ± 0.033
GATGTTTTTT	1.07 ± 0.14
GATTAAAAGT	0.969 ± 0.011
GATTAAACGG	1.04 ± 0.04
GATTAAAGCT	1.11 ± 0.039
GATTAAAGTT	1.02 ± 0.033
GATTAAATGT	0.992 ± 0.014
GATTAACCTA	1.013 ± 0.003
GATTAAGAGG	1.01 ± 0.039
GATTAAGGGC	1.0033 ± 6.6e-05
GATTAATTAC	1.06 ± 0.018
GATTACTCTG	1.03 ± 0.026
GATTAGACAC	1.013 ± 0.01
GATTAGCCGG	0.99 ± 0.015
GATTATATAG	0.957 ± 0.019
GATTATGATT	0.971 ± 0.013
GATTATGCGG	0.9849 ± 0.006
GATTCAAGAT	0.993 ± 0.03
GATTCATGGG	1.01 ± 0.0043
GATTCCATAG	1.06 ± 0.034
GATTCCGGAC	1.032 ± 0.0054
GATTCCGTTG	1.04 ± 0.016
GATTCGTATT	0.9757 ± 0.0047
GATTCTAGGG	0.9918 ± 0.0017

Sequence	switch fluorescence ratio
GATTCTGATT	0.9756 ± 0.0036
GATTGATGTT	1.013 ± 0.009
GATTGCAGTG	0.9786 ± 0.002
GATTGCATCG	0.9937 ± 0.0013
GATTGGAACG	0.976 ± 0.013
GATTGGACTA	1 ± 0.035
GATTGGGGAA	1.02 ± 0.013
GATTGGGGTA	0.978 ± 0.038
GATTGGTCTT	0.976 ± 0.03
GATTGTATCA	0.99 ± 0.014
GATTGTCTTA	0.979 ± 0.016
GATTGTGTTA	1.01 ± 0.043
GATTGTTGGG	0.984 ± 0.02
GATTGTTGTA	0.979 ± 0.014
GATTTAAACA	1.02 ± 0.029
GATTTAAGAG	0.988 ± 0.029
GATTTAAGGG	0.993 ± 0.018
GATTTAAGTG	1.018 ± 0.0065
GATTTAATTG	1.03 ± 0.09
GATTTAGGGG	0.961 ± 0.042
GATTTAGGTA	0.968 ± 0.027
GATTTATTGG	0.983 ± 0.032
GATTTATTTA	0.993 ± 0.015
GATTTCCCGC	1.26 ± 0.043
GATTTCGGCG	0.97 ± 0.03

Sequence	switch fluorescence ratio
GATTTGAGGC	0.987 ± 0.018
GATTTGATGA	0.9959 ± 0.002
GATTTGGACG	1.01 ± 0.028
GATTTGGAGG	0.97361 ± 7.9e-05
GATTTGGGCG	1.038 ± 0.0054
GATTTGGGGT	1 ± 0.033
GATTTGTAGG	1.01 ± 0.0069
GATTTTAATA	1.02 ± 0.016
GATTTTAGAC	0.995 ± 0.015
GATTTTCGCG	1.02 ± 0.037
GATTTTCGCT	0.971 ± 0.022
GATTTTCTTG	1.03 ± 0.017
GATTTTGGGG	1.01 ± 0.029
GATTTTGT	0.969 ± 0.037
GATTTTGTGC	1 ± 0.054
GATTTTTAGT	1.002 ± 0.0016
GATTTTTCGT	0.973 ± 0.01
GATTTTTGTG	0.992 ± 0.018
GCAAAAATGC	1.03 ± 0.031
GCAAAATAAA	1.05 ± 0.12
GCAAACGCAG	1.05 ± 0.032
GCAAACGGGG	1.07 ± 0.041
GCAAAGTGGG	0.9909 ± 0.0077
GCAAATTTTA	1.02 ± 0.015
GCAACATTCT	1.03 ± 0.022

Sequence	switch fluorescence ratio
GCAACCATTA	1.03 ± 0.018
GCAAGAATTT	0.982 ± 0.046
GCAAGACGTT	1.51 ± 0.045
GCAAGATGAT	1.17 ± 0.17
GCAAGATTGA	0.999 ± 0.044
GCAAGCAAGA	1.18 ± 0.067
GCAAGCTAGG	1.03 ± 0.017
GCAAGGGGGG	1.09 ± 0.081
GCAAGGTTAT	1.01 ± 0.018
GCAAGTAGTT	1.03 ± 0.053
GCAAGTTTGC	1.04 ± 0.042
GCAATAGGGT	1.37 ± 0.037
GCAATAGTGG	1.25 ± 0.025
GCAATCGTGG	1.035 ± 0.0042
GCAATTGTTG	1.021 ± 0.01
GCACAATTAG	1.04 ± 0.0071
GCACCAGGGG	1.81 ± 0.81
GCACCTTGAG	1.001 ± 0.0014
GCACGAATGC	1.06 ± 0.025
GCACGCGTGC	1.01 ± 0.044
GCACGGGGCA	1.01 ± 0.023
GCACGGGGGG	1.03 ± 0.0077
GCACTCTGGG	0.995 ± 0.029
GCACTGGGGC	1.01 ± 0.023
GCACTGTGGC	0.992 ± 0.032
